According to the supplement of paper PMC9732359:
± gives the uncertainty stated by the source.

Experiment: protein stability index of a GFP-peptide fusion (yeast GPS) (PSI 1-4); higher = more stable; sorted into four equal gates, so the index is relative within each strain
Outline: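 Peptides tiling yeast proteins in 17-residue segments were fused downstream of GFP, with Cherry expressed from the same plasmid. As a pooled library in yeast, mid-log cultures grown in leucine-free medium were sorted into four equal gates by GFP/Cherry fluorescence ratio. Gate plasmids were PCR-amplified and Illumina-sequenced, and barcodes linked reads to strains. Each peptide received a protein stability index equal to the sum of each gate's read frequency times its gate number.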

Sequence | protein stability index (doa10∆) | protein stability index (pdr5∆) | protein stability index (san1∆) | protein stability index (ubr1∆)
VINKLDRLILDLKLPPM [SNU114] | 2.05 ± 0.12 | 1.31 ± 0.12 | 1.06 ± 0.23 | 2.14 ± 0.1
AHVNKVTEETTKQIQSV [SIR4] | 2.81 ± 0.095 | 2.89 ± 0.078 | 2.98 ± 0.041 | 2.53 ± 0.061
SNIITKSLVQYIELLPN [DIS3] | 2.64 ± 0.072 | 2.08 ± 0.065 | 2.22 ± 0.072 | 2.38 ± 0.05
KTYNKLHYCVSCAIHAR [RPS26A] | 1.21 ± 0.055 | 1.33 ± 0.087 | 1.31 ± 0.14 | 1.2 ± 0.12
EVRDATLNNIFRFDSIQ [GRR1] | 3.18 ± 0.26 | – | 3.38 ± 0.2 | 3.24 ± 0.24
RAIRSEKYGKQVYDLLK [BRR2] | – | – | 2.94 ± 0.18 | 3.26 ± 0.13
MDIILGIRVQDSVILAS [PRE1] | 1.47 ± 0.23 | 1.62 ± 0.2 | 1.71 ± 0.24 | 1.4 ± 0.11
RELFVMAREHAPSIIFM [RPT6] | 1.82 ± 0.078 | 1.99 ± 0.085 | 1.4 ± 0.23 | 1.71 ± 0.078
FFYNISSIHWNNWFSLP [SIN4] | 2.09 ± 0.036 | 1.96 ± 0.038 | 2.03 ± 0.05 | 2.13 ± 0.036
DTEMKMKSLLTELSNKE [YIL149C/MLP2] | 3.31 ± 0.065 | 3.44 ± 0.058 | 3.21 ± 0.045 | 3.35 ± 0.049
KYDRILKEVPTYRYVSV [RPS25A] | – | – | 2.87 ± 0.22 | 2.89 ± 0.14
KPLGPCDVFWVQKDTAI [POP1] | 2.85 ± 0.07 | 3.03 ± 0.069 | 2.89 ± 0.06 | 2.96 ± 0.054
NEKSQAEQEKAKNIISN [LRP1] | 2.59 ± 0.092 | 2.83 ± 0.12 | 2.86 ± 0.078 | 2.62 ± 0.17
LSIICVGGHNVTIREQI [SIR3] | 2.22 ± 0.069 | 1.65 ± 0.042 | 1.78 ± 0.092 | 1.81 ± 0.056
DLLILTRSIKEKWLLNQ [SRB6] | 1.12 ± 0.1 | 1.35 ± 0.19 | 1.32 ± 0.2 | 1.24 ± 0.17
YARFKNDFFPGEVVYLR [ITC1] | 3.29 ± 0.083 | 1.99 ± 0.069 | 2.58 ± 0.1 | 3.22 ± 0.091
DVYASKVRLNASEREEL [PRP8] | 1.93 ± 0.062 | 2.22 ± 0.061 | 2.39 ± 0.072 | 1.78 ± 0.046
LSDYIPGPYPNEQAARA [CYT1] | 2.1 ± 0.054 | 2.54 ± 0.05 | 2.4 ± 0.063 | 2.39 ± 0.05
LLREYDILSQILYGLVD [YJL039C/NUP192] | 2.49 ± 0.081 | 2.06 ± 0.12 | 2.07 ± 0.11 | 2.19 ± 0.064
NEFQLQWGKYQTFGVDI [SWI1] | 2.98 ± 0.12 | 3.06 ± 0.09 | 3.09 ± 0.067 | 3.26 ± 0.088
FSAPIRPDIVHTVFTSV [RPL4A] | 1.7 ± 0.056 | 2.07 ± 0.057 | 1.73 ± 0.094 | 2.16 ± 0.056
ANTSNNLFGATANANKP [YJL041W/NSP1] | 3.32 ± 0.066 | 3.27 ± 0.044 | 3.24 ± 0.043 | 3.22 ± 0.045
NNVTSNPSEFTPNMVNS [SSN2] | 2.93 ± 0.063 | 3.03 ± 0.053 | 2.66 ± 0.09 | 3.1 ± 0.05
THFLLNIYDQLRNKLIE [RRP6] | 2.62 ± 0.044 | 2.69 ± 0.062 | 2.38 ± 0.051 | 2.8 ± 0.033
LSLYSTDLENSSLFQEK [ECM29] | 2.95 ± 0.069 | 2.81 ± 0.077 | 3 ± 0.053 | 2.77 ± 0.046
IWLRKTSQMDLARDTPS [RRP4] | 1.61 ± 0.041 | 1.98 ± 0.051 | 1.54 ± 0.097 | 1.5 ± 0.044
YLNSRIIPTTLEEQQQL [YML103C/NUP188] | 1.97 ± 0.039 | 2.04 ± 0.042 | 1.82 ± 0.071 | 2.13 ± 0.052

Sequence | protein stability index (doa10∆) | protein stability index (pdr5∆) | protein stability index (san1∆) | protein stability index (ubr1∆)
ATDVEARAVQDNGESAF [RPL13A] | 3.16 ± 0.11 | 2.99 ± 0.088 | 1.56 ± 0.094 | 2.85 ± 0.094
LKAKNQEEEGELEHLTK [DSN1] | 3.42 ± 0.076 | 3.35 ± 0.066 | 3.31 ± 0.047 | 3.39 ± 0.047
KAAISFGAKPEEQKSSD [YJL041W/NSP1] | 3.12 ± 0.13 | 2.94 ± 0.2 | 3.5 ± 0.17 | 3.1 ± 0.12
TEGRSRDGGLRLGEMER [RET1] | 1.35 ± 0.081 | 1.82 ± 0.12 | 1.49 ± 0.28 | 1.58 ± 0.071
VVNITHHELVPKHIRLS [RPB5] | 2.52 ± 0.065 | 2.89 ± 0.062 | 3.01 ± 0.064 | 3.01 ± 0.056
LRSKLFQFKLLQSNSKL [SMC4] | 1.84 ± 0.056 | 1.79 ± 0.053 | 1.59 ± 0.079 | 2.23 ± 0.037
RSTKDMIDAVFEQDSHL [SNF6] | 3.12 ± 0.068 | 3.34 ± 0.054 | 3.27 ± 0.053 | 3.14 ± 0.058
NFNDIPPSVTLQDWQRE [YDL088C/ASM4] | 2.51 ± 0.078 | 2.31 ± 0.054 | 2.44 ± 0.077 | 3.09 ± 0.053
NVQTQYREAPVIYRGPE [RET1] | 2.53 ± 0.095 | 2.97 ± 0.069 | 3.36 ± 0.042 | 3.14 ± 0.051
VLKCLKSLESQRYVKSV [RPC34] | 1.72 ± 0.059 | 1.94 ± 0.054 | 1.99 ± 0.1 | 1.91 ± 0.07
EFEIPVSFNGFKLPKKF [BRR2] | 2.58 ± 0.1 | 2.94 ± 0.12 | 2.61 ± 0.12 | 2.91 ± 0.094
EEVEDQINPTRETNDDI [SNF2] | 2.25 ± 0.079 | 1.74 ± 0.082 | 1.45 ± 0.11 | 1.58 ± 0.062
NLHALSMSLQSKNLGEI [SWI1] | 2.57 ± 0.058 | 2.61 ± 0.077 | 2.04 ± 0.17 | 2.66 ± 0.068
LLKSNDPLLSLYNFLHK [RGR1] | 2.31 ± 0.056 | 2.23 ± 0.053 | 2.54 ± 0.048 | 2.55 ± 0.041
LALPVFHIGYFKATIQI [RPO31] | 1.51 ± 0.059 | 1.49 ± 0.043 | 1.87 ± 0.098 | 1.58 ± 0.044
NSANGSSLNGTNAKIPQ [SSN3] | 2.38 ± 0.071 | 2.72 ± 0.071 | 2.53 ± 0.076 | 2.56 ± 0.057
NMLICAPTGSGKTNIAL [BRR2] | 2.55 ± 0.079 | 3.12 ± 0.08 | 2.12 ± 0.091 | 2.98 ± 0.053
SEISIIDATLKEELLRD [RRP45] | 2.44 ± 0.094 | 2.22 ± 0.1 | 2.3 ± 0.099 | 2.83 ± 0.11
MVALISKKRKLVADGVF [RPS3] | – | 1.85 ± 0.18 | 1.53 ± 0.13 | –
LLYYIPSLELSAEYLQM [YJR042W/NUP85] | 1.12 ± 0.09 | 2.03 ± 0.18 | 1.45 ± 0.29 | 1.15 ± 0.12
DELDAIGTKRFDSEKSG [RPT5] | 2.46 ± 0.066 | 1.66 ± 0.058 | 2.25 ± 0.086 | 1.99 ± 0.057
WRAIIKAIFPNTVDGDL [FAS1] | 2.58 ± 0.13 | 2.75 ± 0.15 | 2.6 ± 0.094 | –
NTGIVSSTTGMSYVVRI [RPT3] | 3.17 ± 0.11 | 3.04 ± 0.19 | 3.31 ± 0.11 | 3.25 ± 0.09
RFRGKRVVYLKHLEDNT [RPL6A] | 2.21 ± 0.068 | 2.37 ± 0.053 | 2.15 ± 0.1 | 2.31 ± 0.049
DAIWSLVFQLAKNFSAQ [SRB8] | 2.08 ± 0.049 | 2.56 ± 0.053 | 2.4 ± 0.054 | 2.61 ± 0.041
MFRNNYDGDTVTFSPTG [PRE5] | 2.41 ± 0.12 | 2.84 ± 0.096 | 2.52 ± 0.11 | 3.18 ± 0.073
ELLIYKKSQCKKKTTLE [YIL149C/MLP2] | 3.03 ± 0.21 | 3.29 ± 0.13 | 2.95 ± 0.083 | 3.19 ± 0.15
